Assay results from patent US20150344570A1 (published 2015).

T1: FcγRIIa R (human, UniProt P12318 34-217)
T1 construct: extracellular domain; also called FcgRIIa R type; 2aR
T1 sequence (looked up): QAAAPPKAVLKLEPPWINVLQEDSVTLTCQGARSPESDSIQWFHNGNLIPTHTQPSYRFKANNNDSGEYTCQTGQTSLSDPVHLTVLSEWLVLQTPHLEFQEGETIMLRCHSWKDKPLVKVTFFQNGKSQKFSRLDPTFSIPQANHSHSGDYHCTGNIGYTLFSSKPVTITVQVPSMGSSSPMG


Biological target: T1, FcγRIIa R
Assay: SPR (Biacore), captured antibody, FcγR as analyte; relative binding activity

He/Con_2aR | Binder
111 % (GpH7-A5/GpH7-B3/GpL16-k0 = 100) | GpH7-A5/GpH7-B3 variant K334_12R/GpL16-k0 (antibody, human IgG1, kappa, also called He Ab K334_12R) heavy 1: not shown heavy 2: not shown light: DIVMTQSPLSLPVTPGEPASISCQASESLVHSNRNTYLHWYLQKPGQSPQLLIYKVSNRFSGVPDRFSGSGSGTDFTLKISRVEAEDVGVYYCSQNTHVPPTFGQGTKVEIERTVAAPSVFIFPPSDEQLKSGTASVVCLLNNFYPREAKVQWKVDNALQSGNSQESVTEQDSKDSTYSLSSTLTLSKADYEKHKVYACEVTHQGLSSPVTKSFNRGEC
117 % (GpH7-A5/GpH7-B3/GpL16-k0 = 100) | GpH7-A5/GpH7-B3 variant L328_02A/GpL16-k0 (antibody, human IgG1, kappa, also called He Ab L328_02A) heavy 1: not shown heavy 2: not shown light: DIVMTQSPLSLPVTPGEPASISCQASESLVHSNRNTYLHWYLQKPGQSPQLLIYKVSNRFSGVPDRFSGSGSGTDFTLKISRVEAEDVGVYYCSQNTHVPPTFGQGTKVEIERTVAAPSVFIFPPSDEQLKSGTASVVCLLNNFYPREAKVQWKVDNALQSGNSQESVTEQDSKDSTYSLSSTLTLSKADYEKHKVYACEVTHQGLSSPVTKSFNRGEC
108 % (GpH7-A5/GpH7-B3/GpL16-k0 = 100) | GpH7-A5/GpH7-B3 variant L234_20W/GpL16-k0 (antibody, human IgG1, kappa, also called He Ab L234_20W) heavy 1: not shown heavy 2: not shown light: DIVMTQSPLSLPVTPGEPASISCQASESLVHSNRNTYLHWYLQKPGQSPQLLIYKVSNRFSGVPDRFSGSGSGTDFTLKISRVEAEDVGVYYCSQNTHVPPTFGQGTKVEIERTVAAPSVFIFPPSDEQLKSGTASVVCLLNNFYPREAKVQWKVDNALQSGNSQESVTEQDSKDSTYSLSSTLTLSKADYEKHKVYACEVTHQGLSSPVTKSFNRGEC
144 % (GpH7-A5/GpH7-B3/GpL16-k0 = 100) | GpH7-A5/GpH7-B3 variant N325_08L/GpL16-k0 (antibody, human IgG1, kappa, also called He Ab N325_08L) heavy 1: not shown heavy 2: not shown light: DIVMTQSPLSLPVTPGEPASISCQASESLVHSNRNTYLHWYLQKPGQSPQLLIYKVSNRFSGVPDRFSGSGSGTDFTLKISRVEAEDVGVYYCSQNTHVPPTFGQGTKVEIERTVAAPSVFIFPPSDEQLKSGTASVVCLLNNFYPREAKVQWKVDNALQSGNSQESVTEQDSKDSTYSLSSTLTLSKADYEKHKVYACEVTHQGLSSPVTKSFNRGEC
109 % (GpH7-A5/GpH7-B3/GpL16-k0 = 100) | GpH7-A5/GpH7-B3 variant K334_13S/GpL16-k0 (antibody, human IgG1, kappa, also called He Ab K334_13S) heavy 1: not shown heavy 2: not shown light: DIVMTQSPLSLPVTPGEPASISCQASESLVHSNRNTYLHWYLQKPGQSPQLLIYKVSNRFSGVPDRFSGSGSGTDFTLKISRVEAEDVGVYYCSQNTHVPPTFGQGTKVEIERTVAAPSVFIFPPSDEQLKSGTASVVCLLNNFYPREAKVQWKVDNALQSGNSQESVTEQDSKDSTYSLSSTLTLSKADYEKHKVYACEVTHQGLSSPVTKSFNRGEC
104 % (GpH7-A5/GpH7-B3/GpL16-k0 = 100) | GpH7-A5/GpH7-B3 variant L234_04F/GpL16-k0 (antibody, human IgG1, kappa, also called He Ab L234_04F) heavy 1: not shown heavy 2: not shown light: DIVMTQSPLSLPVTPGEPASISCQASESLVHSNRNTYLHWYLQKPGQSPQLLIYKVSNRFSGVPDRFSGSGSGTDFTLKISRVEAEDVGVYYCSQNTHVPPTFGQGTKVEIERTVAAPSVFIFPPSDEQLKSGTASVVCLLNNFYPREAKVQWKVDNALQSGNSQESVTEQDSKDSTYSLSSTLTLSKADYEKHKVYACEVTHQGLSSPVTKSFNRGEC
119 % (GpH7-A5/GpH7-B3/GpL16-k0 = 100) | GpH7-A5/GpH7-B3 variant L328_09D/GpL16-k0 (antibody, human IgG1, kappa, also called He Ab L328_09D) heavy 1: not shown heavy 2: not shown light: DIVMTQSPLSLPVTPGEPASISCQASESLVHSNRNTYLHWYLQKPGQSPQLLIYKVSNRFSGVPDRFSGSGSGTDFTLKISRVEAEDVGVYYCSQNTHVPPTFGQGTKVEIERTVAAPSVFIFPPSDEQLKSGTASVVCLLNNFYPREAKVQWKVDNALQSGNSQESVTEQDSKDSTYSLSSTLTLSKADYEKHKVYACEVTHQGLSSPVTKSFNRGEC
152 % (GpH7-A5/GpH7-B3/GpL16-k0 = 100) | GpH7-A5/GpH7-B3 variant N325_06M/GpL16-k0 (antibody, human IgG1, kappa, also called He Ab N325_06M) heavy 1: not shown heavy 2: not shown light: DIVMTQSPLSLPVTPGEPASISCQASESLVHSNRNTYLHWYLQKPGQSPQLLIYKVSNRFSGVPDRFSGSGSGTDFTLKISRVEAEDVGVYYCSQNTHVPPTFGQGTKVEIERTVAAPSVFIFPPSDEQLKSGTASVVCLLNNFYPREAKVQWKVDNALQSGNSQESVTEQDSKDSTYSLSSTLTLSKADYEKHKVYACEVTHQGLSSPVTKSFNRGEC
133 % (GpH7-A5/GpH7-B3/GpL16-k0 = 100) | GpH7-A5/GpH7-B3 variant N325_07I/GpL16-k0 (antibody, human IgG1, kappa, also called He Ab N325_07I) heavy 1: not shown heavy 2: not shown light: DIVMTQSPLSLPVTPGEPASISCQASESLVHSNRNTYLHWYLQKPGQSPQLLIYKVSNRFSGVPDRFSGSGSGTDFTLKISRVEAEDVGVYYCSQNTHVPPTFGQGTKVEIERTVAAPSVFIFPPSDEQLKSGTASVVCLLNNFYPREAKVQWKVDNALQSGNSQESVTEQDSKDSTYSLSSTLTLSKADYEKHKVYACEVTHQGLSSPVTKSFNRGEC
112 % (GpH7-A5/GpH7-B3/GpL16-k0 = 100) | GpH7-A5/GpH7-B3 variant L234_10E/GpL16-k0 (antibody, human IgG1, kappa, also called He Ab L234_10E) heavy 1: not shown heavy 2: not shown light: DIVMTQSPLSLPVTPGEPASISCQASESLVHSNRNTYLHWYLQKPGQSPQLLIYKVSNRFSGVPDRFSGSGSGTDFTLKISRVEAEDVGVYYCSQNTHVPPTFGQGTKVEIERTVAAPSVFIFPPSDEQLKSGTASVVCLLNNFYPREAKVQWKVDNALQSGNSQESVTEQDSKDSTYSLSSTLTLSKADYEKHKVYACEVTHQGLSSPVTKSFNRGEC
129 % (GpH7-A5/GpH7-B3/GpL16-k0 = 100) | GpH7-A5/GpH7-B3 variant L235_15Y/GpL16-k0 (antibody, human IgG1, kappa, also called He Ab L235_15Y) heavy 1: not shown heavy 2: not shown light: DIVMTQSPLSLPVTPGEPASISCQASESLVHSNRNTYLHWYLQKPGQSPQLLIYKVSNRFSGVPDRFSGSGSGTDFTLKISRVEAEDVGVYYCSQNTHVPPTFGQGTKVEIERTVAAPSVFIFPPSDEQLKSGTASVVCLLNNFYPREAKVQWKVDNALQSGNSQESVTEQDSKDSTYSLSSTLTLSKADYEKHKVYACEVTHQGLSSPVTKSFNRGEC
